The subject of this series is p44 (in p44/p62 complex);p62 (in p44/p62 complex) (Chaetomium thermophilum;Chaetomium thermophilum). Briefly: fluorescence anisotropy. To be noted: 20 mM HEPES pH 7.5, 30 mM KCl, 5 mM MgCl2, 1 mM TCEP, 5 nM DNA, room temperature. On the technique in general: Polarisation of emitted light reports the rotation of a fluorescent probe.
In general, Kd refers to a measure of binding affinity in units of concentration. Lower therefore signals higher affinity. “GACTACGTACTGTTACGGCTCCATCTCTACCGCAATCAGGCCAGATCTGC / GCAGATCTGGCCTGATTGCGGTAGCGATGGAGCCGTAACAGTACGTAGTC [undamaged dsDNA 50 bp]” had an equilibrium dissociation constant (Kd) of 1.18 µM.

“GACTACGTACTGTTACGGCTCCATCTCTACCGCAATCAGGCCAGATCTGC [undamaged ssDNA 50 nt]” displayed a Kd of 0.84 µM.

Take “TTTTTTTTTTTTTTTCCCGGCCATGCGAAGCATGGCCGGGTTTTT [open fork hairpin]”: the Kd was found to be 0.21 µM.

The values above are taken from paper PMC7736792.
